Data on three molecules can be found in publication PMC2821790.

Data set [1] deals with T1, 15N-G11,G20,G37-HMGA1(2/3) peptide (UniProt P17096 49-91).
T1 chain: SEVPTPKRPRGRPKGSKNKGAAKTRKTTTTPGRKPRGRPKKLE
Nature of the data set: NMR.

A further data set concerns the target Sp1 (UniProt P08047 1-785). The experiment in a line: EMSA. (In general: A gel shift assay detects complexes by their altered migration in electrophoresis.)
Data set [2] deals with T2, HMGA1(2/3) peptide (AT-hooks DBD2 and DBD3) (UniProt P17096 49-91).
T2 chain: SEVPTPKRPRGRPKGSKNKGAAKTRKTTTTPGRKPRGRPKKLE
The experiment in a line: EMSA.

Chain of Sp1 (P08047 whole entry): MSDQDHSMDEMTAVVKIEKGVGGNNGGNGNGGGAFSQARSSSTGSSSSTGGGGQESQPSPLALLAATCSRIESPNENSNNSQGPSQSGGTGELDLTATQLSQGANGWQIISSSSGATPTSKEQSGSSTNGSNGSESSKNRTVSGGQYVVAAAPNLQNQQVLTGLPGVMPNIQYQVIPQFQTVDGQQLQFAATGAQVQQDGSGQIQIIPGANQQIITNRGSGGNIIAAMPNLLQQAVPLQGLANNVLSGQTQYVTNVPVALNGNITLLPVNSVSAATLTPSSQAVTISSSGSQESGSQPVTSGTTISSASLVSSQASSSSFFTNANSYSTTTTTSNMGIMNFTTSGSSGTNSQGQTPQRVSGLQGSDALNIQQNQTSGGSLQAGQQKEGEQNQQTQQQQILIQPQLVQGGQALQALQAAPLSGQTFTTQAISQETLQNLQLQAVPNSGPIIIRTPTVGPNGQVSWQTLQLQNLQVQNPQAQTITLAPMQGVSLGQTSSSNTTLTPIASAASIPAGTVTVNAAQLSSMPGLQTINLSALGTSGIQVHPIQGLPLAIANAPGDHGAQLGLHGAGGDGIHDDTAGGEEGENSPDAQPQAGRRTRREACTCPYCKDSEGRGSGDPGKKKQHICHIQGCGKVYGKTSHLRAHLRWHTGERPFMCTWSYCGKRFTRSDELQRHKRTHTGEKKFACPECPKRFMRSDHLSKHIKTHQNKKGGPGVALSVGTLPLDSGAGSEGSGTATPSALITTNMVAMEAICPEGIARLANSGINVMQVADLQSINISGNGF

B1: NOS2 Oct 16-bp DNA (NMR) (dsDNA)
DNA 1: AGTTATGCAAAATAGC
DNA 2: GCTATTTTGCATAACT
As for B1, the binding result in data set [1] is reported as “binds”.

B2: Sp1 consensus probe (dsDNA)
DNA 1: ATTCGATCGGGGCGGGGCGAGC
DNA 2: GCTCGCCCCGCCCCGATCGAAT
On to B2, for which the binding result in the data set with Sp1 is recorded as “binds”.

B3: NOS2 Oct EMSA probe (-65/-50) (dsDNA)
DNA 1: AGTTATGCAAAATAGC
DNA 2: GCTATTTTGCATAACT
Regarding B3, in data set [2], the binding result is “binds”.
